Target: NavMs prokaryotic sodium channel, wild type, full-length construct (Magnetococcus marinus (Magnetococcus sp. strain MC-1)) (UniProt A0L5S6)
Assay: crystal structure; sitting drop, 0.05 M NaCl, 0.1 M MES pH 6.5, 37.8% v/v PEG 400, 4% ethylene glycol; protein purified in HEGA-10; molecular replacement with NavAb (PDB 3RVY)

Substance: NavMs prokaryotic sodium channel, wild type, full-length construct (from UniProt A0L5S6 1-274) (natural protein)
- stoichiometry N: 4
